Measurements reported in patent publication US10787647B2, “HSD17B13 variants and uses thereof” (Regeneron Pharmaceuticals, Inc., priority 2017, dated 2020).

B1: HSD17B13 Isoform D: HSD17B13 Protein Isoform D, SEQ ID NO: 15; prematurely truncated protein encoded by Transcript D of the rs72613567 variant (protein, listed as Homo sapiens)
chain: MNIILEILLLLITIIYSYLESLVKFFIPQRRKSVAGEIVLITGAGHGIGRQTTYEFAKRQSILVLWDINKRGVEETAAECRKLGVTAHAYVVDCSNREEIYRSLNQVKKEVGDVTIVVNNAGTVYPADLLSTKDEEITKTFEVNILGHFWITKALLPSMMERNHGHIVTVASVCGHEGIPYLIPYCSSKFAAVGFHRGLTSELQALGKTGIKTSCLCPVFVNTGFTKNPSTRLWPVLETDEVVRSLIDGILTNKKMIFVPSYINIFLRLQKVSS
modifications: (1)..(70) Region Encoded by Exon 1; (71)..(106) Region Encoded by Exon 2; (107)..(150) Region Encoded by Exon 3; (151)..(185) Region Encoded by Exon 4; (186)..(232) Region Encoded by Exon 5; (233)..(271) Region Encoded by Exon 6v2; (272)..(274) Region Encoded by Exon 7
B2: HSD17B13 Isoform A: HSD17B13 Protein Isoform A, SEQ ID NO: 12; full-length 300 amino acid protein encoded by Transcript A (protein, listed as Homo sapiens)
chain: MNIILEILLLLITIIYSYLESLVKFFIPQRRKSVAGEIVLITGAGHGIGRQTTYEFAKRQSILVLWDINKRGVEETAAECRKLGVTAHAYVVDCSNREEIYRSLNQVKKEVGDVTIVVNNAGTVYPADLLSTKDEEITKTFEVNILGHFWITKALLPSMMERNHGHIVTVASVCGHEGIPYLIPYCSSKFAAVGFHRGLTSELQALGKTGIKTSCLCPVFVNTGFTKNPSTRLWPVLETDEVVRSLIDGILTNKKMIFVPSYINIFLRLQKFLPERASAILNRMQNIQFEAVVGHKIKMK
modifications: (1)..(70) Region Encoded by Exon 1; (71)..(106) Region Encoded by Exon 2; (107)..(150) Region Encoded by Exon 3; (151)..(185) Region Encoded by Exon 4; (186)..(232) Region Encoded by Exon 5; (233)..(271) Region Encoded by Exon 6v1; (272)..(300) Region Encoded by Exon 7

What was measured:
HepG2 cells = assay: Quantification of intracellular triglyceride content in stable cell lines; type: cell-based, human; conditions: for intracellular triglyceride content versus GFP control: cell lines overexpressing isoform, oleic acid treatment
Method: HepG2 cells were cultured in Eagle's Minimum Essential Medium supplemented with 10% fetal bovine serum. HSD17B13 transcripts A and D were sub-cloned into Myc-DDK backbone lentivirus constructs, and lentivirus were generated. HepG2 cells were infected with lentivirus carrying the HSD17B13 transcripts. Stable cell lines expressing each HSD17B13 transcript were selected with 1-3 mg/ml Geneticin G-418 sulfate in complete culture medium for two weeks. Following fixation, HSD17B13 isoforms were detected with mouse anti-Myc antibody. Lipid droplets were labeled with BODIPY FL dye (Sigma). Secondary antibodies for immunofluorescence were Alexa Fluor 488 donkey anti-rabbit IgG and Alexa Fluor 594 donkey anti-mouse IgG (Jackson ImmunoResearch).
The triglyceride (TG) content from the stable cells was determined using a TG quantification kit (Abcam). In the assay, TG are converted to free fatty acids and glycerol. The glycerol is then oxidized to generate a product which is quantified (spectrophotometry at λ=570 nm).

[1] = biological target: T1, recombinant human HSD17B13 (Homo sapiens, UniProt Q7Z5P4); assay: Substrate screening of steroid and bioactive lipid libraries against purified recombinant HSD17B13 (NADH-Glo); type: biochemical; conditions: putative substrate screen with recombinant protein
T1 sequence (Q7Z5P4 20-300): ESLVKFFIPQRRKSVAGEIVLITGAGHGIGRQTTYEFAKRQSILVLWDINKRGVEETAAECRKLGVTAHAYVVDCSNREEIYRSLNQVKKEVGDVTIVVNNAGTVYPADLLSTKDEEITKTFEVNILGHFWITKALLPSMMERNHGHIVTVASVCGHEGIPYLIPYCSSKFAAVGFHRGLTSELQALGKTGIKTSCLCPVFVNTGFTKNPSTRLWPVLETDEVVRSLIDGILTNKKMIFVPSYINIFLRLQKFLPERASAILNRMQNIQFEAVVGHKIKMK
Method: Reactions were performed in a final volume of 40 μL of assay buffer (0.2 M Tris-HCl, pH 7.5) which contained 500 μM NAD^±, 5 μM bioactive lipid or 50 μM steroid (all in a final concentration of 5% DMSO), and 100 ng recombinant human HSD17B13. Reactions were incubated for 3 hours, at 23° C., after which an equal volume NADH-Glo Detection Reagent (Promega) was added. Following a 1 hour incubation at 23° C., the relative light units (RLUs) were measured on an Envision Plate Reader (Perkin Elmer). Raw RLU values were normalized as percent of control (50 μM estradiol) following subtraction of negative control (5% DMSO) using the following formula: Percent of control (POC)=100×(Sample (RLU)−Negative CTRLaverage)/(Positive CTRLaverage−Negative CTRLaverage).

HSD17B13 = biological target: T2, HSD17B13 (Homo sapiens, UniProt Q7Z5P4); assay: In vitro enzymatic activity of recombinant HSD17B13 isoforms A and D (NADH production, NAD(P)H-Glo); type: biochemical
T2 construct: Transcript A, which encodes the full-length 300 amino acid protein; 10x His (C); host or cells: E. coli
T2 sequence (Q7Z5P4 with tags, fused parts or gaps): B1 chain
Method: Recombinant human HSD17B13 protein was purified from E. coli (Genscript) transformed with plasmid DNA harboring HSD17B13 transcript A or transcript D. The HSD17B13 variants contained a 10× His tag at the C terminus and were purified from soluble fraction using a Ni2^+ affinity purification. Enzymatic activity was determined through measurement of NADH production using the NAD(P)H-Glo Detection System (Promega). Reactions were performed for 3 hours at 25° C. in 0.2 M Tris-HCl, pH 7.5, 0.5 mM NAD^+, 75 μM of substrate (Sigma) and 500 ng purified enzyme in a final volume of 100 μL. After incubation, 20 μL of the reaction was combined with 20 μL luciferase reagent (Promega), incubated at room temperature for 1 hour and read on an Envision Plate Reader (Perkin Elmer).

[2] = system: HEK293 cells overexpressing HSD17B13 transcript A, transcript D or GFP; assay: Cell-based estradiol to estrone conversion in culture media (LC-MS); parameters: species or system human; conditions: overexpressed in HEK293 cells, estradiol 1 μM, 48 hours
Method: HEK293 cells overexpressing HSD17B13 transcript A, transcript D or green fluorescent protein (GFP, control) were used to investigate the activity of HSD17B13 against estradiol in a cell-based assay. Estradiol (1 μM) was fed to each cell type. After 48 hours, the media was collected and the concentration of estradiol and its converted product estrone were identified and quantified by LC-MS.

Molecule | enzymatically converted by HSD17B13 (oxidation of a hydroxyl to a ketone group) [1] | conversion of estradiol (substrate) to estrone (product) measured in the culture media [2] | intracellular triglyceride content versus GFP control (HepG2 cells) | also measured
CCCCCCCC/C=C\CCCCCCCC(=O)O [oleic acid, reference compound] |  |  |  | triglyceride (TG) content (HepG2 cells; increasing concentrations of oleic acid, HepG2 GFP control and HSD17B13 Transcript A and D cell lines): increased triglyceride (TG) content
C[C@]12CC[C@@H]3c4ccc(O)cc4CC[C@H]3[C@@H]1CC[C@@H]2O [estradiol, 17-beta estradiol] | enzymatically converted |  |  | 
CCCCC/C=C\C[C@@H](O)/C=C/C=C/C=C\[C@@H](O)CCCC(=O)O [leukotriene B4] | enzymatically converted |  |  | 
CCCCCC(O)C=CC=CCCCCCCCC(=O)O (stereo not drawn) [13-Hydroxyoctadecadienoic acid] | enzymatically converted |  |  | 
B1 |  | did not show much conversion | No differences | activity towards the three substrates (HSD17B13; estradiol, leukotriene B4, 13-Hydroxyoctadecadienoic acid, recombinant protein in vitro): greatly reduced activity; activity towards estradiol in vitro compared to HSD17B13 isoform A (HSD17B13; estradiol, recombinant protein, NAD cofactor): greatly reduced activity; enzymatic activity of the corresponding values for Isoform A (HSD17B13; substrates 17-beta estradiol, leukotriene B4, 13(S)-HODE, recombinant protein): < 10%; conversion of estradiol (substrate) to estrone (product) measured in the culture media ([2]; listed as HSD17B13 isoform D): greatly reduced activity
B2 |  | robust conversion | No differences | 
